From paper PMC3269305 (Journal of Molecular Biology, 2011) come the findings set out here.

In the assay the target is human eukaryotic translation initiation factor eIF4E (human, UniProt P06730 1-217). Description: crystal structure.
Sequence of human eukaryotic translation initiation factor eIF4E (P06730 whole entry): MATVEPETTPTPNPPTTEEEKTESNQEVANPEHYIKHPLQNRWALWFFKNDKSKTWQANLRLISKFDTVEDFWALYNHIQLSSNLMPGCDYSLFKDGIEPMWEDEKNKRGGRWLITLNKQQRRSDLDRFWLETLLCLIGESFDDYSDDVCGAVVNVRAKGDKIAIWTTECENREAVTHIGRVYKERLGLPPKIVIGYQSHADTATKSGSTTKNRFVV

PGGTRIIYDRKFLMECRNSP [4EBP1 peptide (eIF4E binding site of human 4EBP1, residues 47-66)]: the binding result is “binds”.
